# Measured values published in patent publication US20090118184A1 (UNIVERSITY OF ROCHESTER, published 2009).
# T1: factor VIIIa A1/A3C1C2 dimer, R1966A (human, UniProt P00451 20-391; P00451 1709-2351)
# T1 sequence 1: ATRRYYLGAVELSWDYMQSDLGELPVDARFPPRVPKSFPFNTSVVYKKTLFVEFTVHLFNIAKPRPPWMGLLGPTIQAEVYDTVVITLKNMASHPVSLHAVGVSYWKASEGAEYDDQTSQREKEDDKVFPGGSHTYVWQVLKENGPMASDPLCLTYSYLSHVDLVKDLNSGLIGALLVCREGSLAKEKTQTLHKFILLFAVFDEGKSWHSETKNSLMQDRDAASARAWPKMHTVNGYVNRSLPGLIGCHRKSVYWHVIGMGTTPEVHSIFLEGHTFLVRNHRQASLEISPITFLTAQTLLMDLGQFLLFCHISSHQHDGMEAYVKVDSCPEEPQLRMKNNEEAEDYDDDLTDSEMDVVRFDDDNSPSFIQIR
# T1 sequence 2: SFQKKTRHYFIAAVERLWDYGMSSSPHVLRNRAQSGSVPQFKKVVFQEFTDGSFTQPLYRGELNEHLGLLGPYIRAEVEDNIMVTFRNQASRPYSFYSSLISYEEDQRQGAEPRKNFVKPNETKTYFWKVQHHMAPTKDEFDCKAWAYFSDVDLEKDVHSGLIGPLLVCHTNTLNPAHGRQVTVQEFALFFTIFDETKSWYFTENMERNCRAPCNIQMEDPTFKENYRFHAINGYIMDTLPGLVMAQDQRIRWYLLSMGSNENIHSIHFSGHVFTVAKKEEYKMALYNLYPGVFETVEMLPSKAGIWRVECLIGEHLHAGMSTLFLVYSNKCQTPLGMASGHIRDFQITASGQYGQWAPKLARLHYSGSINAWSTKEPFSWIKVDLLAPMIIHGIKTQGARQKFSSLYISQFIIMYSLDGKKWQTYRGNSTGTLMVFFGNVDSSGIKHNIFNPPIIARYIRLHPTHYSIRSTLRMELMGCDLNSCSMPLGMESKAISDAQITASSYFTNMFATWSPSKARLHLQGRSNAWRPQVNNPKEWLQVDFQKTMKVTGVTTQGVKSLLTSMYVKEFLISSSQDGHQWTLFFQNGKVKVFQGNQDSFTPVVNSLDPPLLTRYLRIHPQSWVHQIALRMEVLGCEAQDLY
# T2: factor VIIIa A1/A3C1C2 dimer, H317A (human, UniProt P00451 20-391; P00451 1709-2351)
# T2 chain 1: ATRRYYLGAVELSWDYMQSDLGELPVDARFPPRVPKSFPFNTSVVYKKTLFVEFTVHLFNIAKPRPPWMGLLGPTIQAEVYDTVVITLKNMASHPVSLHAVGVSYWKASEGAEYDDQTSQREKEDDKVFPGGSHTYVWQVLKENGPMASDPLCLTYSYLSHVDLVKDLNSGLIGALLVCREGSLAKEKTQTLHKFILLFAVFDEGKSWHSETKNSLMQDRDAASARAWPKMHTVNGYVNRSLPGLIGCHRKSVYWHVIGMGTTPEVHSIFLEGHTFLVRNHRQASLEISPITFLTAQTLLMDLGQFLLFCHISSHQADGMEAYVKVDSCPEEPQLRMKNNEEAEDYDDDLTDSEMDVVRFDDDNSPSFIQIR
# T2 chain 2: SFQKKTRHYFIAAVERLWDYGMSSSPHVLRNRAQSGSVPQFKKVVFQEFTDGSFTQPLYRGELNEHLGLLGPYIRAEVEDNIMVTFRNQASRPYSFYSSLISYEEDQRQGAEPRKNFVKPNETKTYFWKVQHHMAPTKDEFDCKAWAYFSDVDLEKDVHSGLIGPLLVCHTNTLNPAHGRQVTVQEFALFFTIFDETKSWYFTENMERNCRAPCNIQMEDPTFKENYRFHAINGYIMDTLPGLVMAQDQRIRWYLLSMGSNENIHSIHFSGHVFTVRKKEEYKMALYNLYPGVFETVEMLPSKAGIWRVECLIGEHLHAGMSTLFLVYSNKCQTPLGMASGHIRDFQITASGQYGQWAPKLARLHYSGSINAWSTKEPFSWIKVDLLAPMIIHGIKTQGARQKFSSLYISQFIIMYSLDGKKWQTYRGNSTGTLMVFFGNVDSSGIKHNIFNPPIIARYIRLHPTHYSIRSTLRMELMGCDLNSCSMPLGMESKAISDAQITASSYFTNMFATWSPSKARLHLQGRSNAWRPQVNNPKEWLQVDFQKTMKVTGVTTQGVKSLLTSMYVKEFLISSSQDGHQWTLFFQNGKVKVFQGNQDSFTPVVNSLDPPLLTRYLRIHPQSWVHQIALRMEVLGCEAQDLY
# T3: factor VIIIa A1/A3C1C2 dimer, D27A (human, UniProt P00451 20-391; P00451 1709-2351)
# T3 chain 1: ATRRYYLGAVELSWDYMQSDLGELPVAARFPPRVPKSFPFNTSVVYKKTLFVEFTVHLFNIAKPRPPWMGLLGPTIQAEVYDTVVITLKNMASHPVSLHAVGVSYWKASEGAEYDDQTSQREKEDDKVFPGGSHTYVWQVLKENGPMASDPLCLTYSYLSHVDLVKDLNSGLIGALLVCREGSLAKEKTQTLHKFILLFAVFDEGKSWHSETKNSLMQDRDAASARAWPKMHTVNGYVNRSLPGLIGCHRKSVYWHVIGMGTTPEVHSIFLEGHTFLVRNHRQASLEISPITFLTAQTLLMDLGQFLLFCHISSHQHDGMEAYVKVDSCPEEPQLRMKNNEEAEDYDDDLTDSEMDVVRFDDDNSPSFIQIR
# T3 chain 2: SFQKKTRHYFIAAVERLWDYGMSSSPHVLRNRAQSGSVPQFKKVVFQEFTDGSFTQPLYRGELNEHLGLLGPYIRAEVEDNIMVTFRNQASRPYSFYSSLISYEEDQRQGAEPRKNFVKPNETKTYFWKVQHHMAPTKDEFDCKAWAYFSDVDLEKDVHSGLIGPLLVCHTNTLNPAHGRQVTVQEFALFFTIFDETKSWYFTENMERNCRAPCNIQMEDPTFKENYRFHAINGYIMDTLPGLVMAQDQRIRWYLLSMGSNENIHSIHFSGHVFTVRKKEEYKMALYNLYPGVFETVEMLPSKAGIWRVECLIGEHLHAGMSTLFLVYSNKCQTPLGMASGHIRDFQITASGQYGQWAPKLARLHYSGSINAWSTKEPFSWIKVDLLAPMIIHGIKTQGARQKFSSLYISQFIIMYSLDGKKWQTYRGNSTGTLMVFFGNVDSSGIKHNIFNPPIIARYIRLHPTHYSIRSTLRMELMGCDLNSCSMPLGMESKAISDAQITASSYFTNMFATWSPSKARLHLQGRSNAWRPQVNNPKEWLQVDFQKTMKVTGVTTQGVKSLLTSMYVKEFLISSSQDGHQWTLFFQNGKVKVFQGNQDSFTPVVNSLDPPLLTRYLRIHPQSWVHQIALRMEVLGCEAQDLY
# Tests used:
# Test in all cases: cell-based or functional assay
# [1] = biological target: T1, factor VIIIa A1/A3C1C2 dimer, R1966A
# [2] = biological target: T2, factor VIIIa A1/A3C1C2 dimer, H317A
# [3] = biological target: T3, factor VIIIa A1/A3C1C2 dimer, D27A
binder,measurement,setting,value
"factor VIIIa A2 subunit, wild type (other) SVAKKHPKTWVHYIAAEEEDWDYAPLVLAPDDRSYKSQYLNNGPQRIGRKYKKVRFMAYTDETFKTREAIQHESGILGPLLYGEVGDTLLIIFKNQASRPYNIYPHGITDVRPLYSRRLPKGVKHLKDFPILPGEIFKYKWTVTVEDGPTKSDPRCLTRYYSSFVNMERDLASGLIGPLLICYKESVDQRGNQIMSDKRNVILFSVFDENRSWYLTENIQRFLPNPAGVQLEDPEFQASNIMHSINGYVFDSLQLSVCLHEVAYWYILSIGAQTDFLSVFFSGYTFKHKMVYEDTLTLFPFSGETVFMSMENPGLWILGCHNSDFRNRGMTALLKVSSCDKNTGDYYEDSYEDISAYLLSKNNAIEPR","Factor VIIIa decay rate relative to wild type, FIXa (+)",[1],1.44 relative to wild type
same,"Factor VIIIa decay rate, FIXa (+)",[1],0.0163 min⁻¹
same,"Factor VIIIa decay rate relative to wild type, FIXa (+)",[2],1.28 relative to wild type
same,"Factor VIIIa decay rate, FIXa (+)",[2],0.0145 min⁻¹
same,"Factor VIIIa decay rate relative to wild type, FIXa (+)",[3],0.79 relative to wild type
same,"Factor VIIIa decay rate, FIXa (+)",[3],0.0089 min⁻¹
